From patent US20060134709A1
Each block holds one substance with its values, some of them ahead of it.

Columns and labels:
[1] = target: C1q; assay: BIAcore; 2B6 captured on soluble CD32B (2bLAvi) on a CM-5 chip, C1q injected
[2] = target: soluble FcγRIIIA tetrameric complex (human) (UniProt P08637); assay: FACS titration of tetramer, 1.4 to 0.0006 µM
[3] = target: soluble monomeric FcγRIIIA-linker-AVITAG (human) (UniProt P08637); assay: ELISA
[4] = target: FcγRIIB-Fc fusion protein (human) (UniProt P31994); assay: BIAcore
Sequence of FcγRIIB-Fc fusion protein (human) (P31994 43-217): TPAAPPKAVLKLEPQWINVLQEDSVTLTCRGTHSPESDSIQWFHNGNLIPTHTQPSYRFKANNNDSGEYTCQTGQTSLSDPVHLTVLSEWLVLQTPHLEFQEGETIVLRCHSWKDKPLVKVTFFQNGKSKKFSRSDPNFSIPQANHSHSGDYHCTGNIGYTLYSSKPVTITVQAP

[5] = target: soluble monomeric FcγRIIIA-linker-AVITAG (human) (UniProt P08637); assay: BIAcore
[6] = target: soluble monomeric FcγRIIIA-linker-AVITAG (human) (UniProt P08637); assay: ELISA of FcγRIIIA binding; OD listed beside the sensorgrams
[7] = target: FcγRIIB-Fc fusion protein (human) (UniProt P31994); assay: ELISA of FcγRIIB-Fc binding; OD listed beside the sensorgrams
[8] = target: FcγRIIB-Fc fusion protein (human) (UniProt P31994); assay: BIAcore: ch4-4-20 captured on BSA-FITC, FcγRIIB-Fc at two concentrations, separate fits, average of the two
[9] = target: soluble monomeric FcγRIIIA-linker-AVITAG (human) (UniProt P08637); assay: BIAcore: ch4-4-20 captured on BSA-FITC, FcγRIIIA at 200 nM and 800 nM, separate fits, average of the two concentrations
[10] = target: FcγRIIB-Fc fusion protein (human) (UniProt P31994); assay: ELISA
[11] = target: FcγRIIB-Fc fusion protein (human) (UniProt P31994); assay: BIAcore; remark: listed apart in the source
[12] = target: monomeric human IgG; assay: ELISA
[13] = target: monomeric human IgG; assay: direct ELISA on plate-coated human IgG, detection with DJ130c and anti-mouse peroxidase

Sequence of C1q (P02745 23-245, chain 1 of 3): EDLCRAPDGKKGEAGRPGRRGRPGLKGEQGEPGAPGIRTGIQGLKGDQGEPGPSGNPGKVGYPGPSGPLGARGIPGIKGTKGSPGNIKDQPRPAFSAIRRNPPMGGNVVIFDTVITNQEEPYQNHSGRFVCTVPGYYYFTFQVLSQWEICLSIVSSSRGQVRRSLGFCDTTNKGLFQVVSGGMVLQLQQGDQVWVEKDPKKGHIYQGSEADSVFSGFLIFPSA
Sequence of C1q (P02746 28-253, chain 2 of 3, further chain): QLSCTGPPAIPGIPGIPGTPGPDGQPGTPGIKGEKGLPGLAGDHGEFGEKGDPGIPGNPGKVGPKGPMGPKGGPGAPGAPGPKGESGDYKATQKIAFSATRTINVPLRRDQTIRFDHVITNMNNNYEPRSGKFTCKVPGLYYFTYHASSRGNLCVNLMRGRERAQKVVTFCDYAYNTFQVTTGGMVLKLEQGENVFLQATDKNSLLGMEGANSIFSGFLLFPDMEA
Sequence of C1q (P02747 29-245, chain 3 of 3, further chain): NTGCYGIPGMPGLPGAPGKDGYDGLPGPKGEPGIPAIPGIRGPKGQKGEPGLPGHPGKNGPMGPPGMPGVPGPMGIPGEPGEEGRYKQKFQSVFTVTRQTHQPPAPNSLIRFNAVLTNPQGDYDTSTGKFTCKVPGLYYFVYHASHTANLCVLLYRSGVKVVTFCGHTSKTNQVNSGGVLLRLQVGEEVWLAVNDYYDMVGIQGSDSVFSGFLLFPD
Sequence of soluble monomeric FcγRIIIA-linker-AVITAG (human) (P08637 17-203 F176V limits assumed, form in doubt): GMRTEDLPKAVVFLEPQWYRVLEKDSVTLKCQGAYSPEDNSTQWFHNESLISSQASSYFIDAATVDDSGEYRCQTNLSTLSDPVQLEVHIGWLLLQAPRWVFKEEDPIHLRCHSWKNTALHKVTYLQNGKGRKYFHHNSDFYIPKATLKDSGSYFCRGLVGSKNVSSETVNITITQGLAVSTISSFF
Sequence of soluble FcγRIIIA tetrameric complex (human) (P08637 17-203 F176V limits assumed, form in doubt, one chain of several): as the sequence (P08637 17-203 F176V limits assumed, form in doubt) above

koff [1]: 0.13 s⁻¹
Substance: 2B6 (panel FIG. 34B-1) (antibody)

Kd [11]: 45.3 nM
ELISA, OD [6]: 0.75 OD
Kd [9]: 100 nM
Substance: ch4-4-20 K246I, K334N (antibody)

ELISA, OD [3]: 1.25 OD
Kd [4]: 108 nM
koff [4]: 0.107 s⁻¹
Kd [5]: 70.2 nM
koff [5]: 0.105 s⁻¹
kon [5]: 1.43e+06 M⁻¹ s⁻¹
ELISA, OD [7]: 0.1 OD
Substance: ch4-4-20 K334E, R292L (antibody)

The remaining lines, values behind:

Substance: 2B6 (panel FIG. 34B-2) (antibody)
Kd [1]: 7 nM
koff [1]: 0.06 s⁻¹

Substance: Aga2p-CH1-CH3 fusion (pYD-CH1), wild type Fc on yeast
Kd [2]: 6 nM

Substance: ch4-4-20 F243L, R255L (antibody)
fold vs wt [3]: 1 x
Kd [4]: 74.7 nM
koff [4]: 0.09 s⁻¹
Kd [5]: 90 nM
koff [5]: 0.075 s⁻¹
ELISA, OD [6]: 0.37 OD
ELISA, OD [7]: 0.1 OD
Kd [8]: 82.3 nM
koff [8]: 0.1 s⁻¹
Kd [9]: 91.8 nM
koff [9]: 0.073 s⁻¹

Substance: ch4-4-20 F372Y (antibody)
ELISA, OD [10]: 1.55 OD
ELISA, OD [6]: 1 OD
Kd [9]: 84.8 nM

Substance: chimeric 4-4-20 antibody, wild type Fc
ELISA, OD [10]: 0.4 OD
ELISA, OD [3]: 0.5 OD
Kd [4]: 94 nM
koff [4]: 0.094 s⁻¹
Kd [5]: 198 nM
Kd [11]: 61.4 nM
koff [11]: 0.085 s⁻¹
koff [8]: 0.0847 s⁻¹

Substance: soluble FcγRIIIA tetrameric complex (from UniProt P08637 17-203) (receptor)
fold avidity vs monomeric receptor [12]: 8 to 10 fold
EC50 (read off the curve) [13]: 1 µg/mL
